Assay [1] deals with T1, human TfR ectodomain fused to a mouse IgG1 Fc fragment (human, UniProt P02786 89-760).
T1 construct: extracellular domain; ectodomain fused to the N-terminal end of the Fc, made in-house; not shown: mouse IgG1 Fc fragment
In words: SPR, kinetic. Put shortly: (§1)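 TfR–mouse Fc fusions, produced in-house, captured on HC 1500M or CM5 chips either directly or via immobilized anti-mouse IgG. VHHs injected in single-cycle or multiple-cycle kinetic mode on Biacore T200.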

The target in assay [2] is T2, mouse TfR ectodomain fused to a mouse IgG1 Fc fragment (mouse, UniProt Q62351 89-763).
T2 construct: extracellular domain; not shown: mouse IgG1 Fc fragment
T2 sequence (Q62351 89-763): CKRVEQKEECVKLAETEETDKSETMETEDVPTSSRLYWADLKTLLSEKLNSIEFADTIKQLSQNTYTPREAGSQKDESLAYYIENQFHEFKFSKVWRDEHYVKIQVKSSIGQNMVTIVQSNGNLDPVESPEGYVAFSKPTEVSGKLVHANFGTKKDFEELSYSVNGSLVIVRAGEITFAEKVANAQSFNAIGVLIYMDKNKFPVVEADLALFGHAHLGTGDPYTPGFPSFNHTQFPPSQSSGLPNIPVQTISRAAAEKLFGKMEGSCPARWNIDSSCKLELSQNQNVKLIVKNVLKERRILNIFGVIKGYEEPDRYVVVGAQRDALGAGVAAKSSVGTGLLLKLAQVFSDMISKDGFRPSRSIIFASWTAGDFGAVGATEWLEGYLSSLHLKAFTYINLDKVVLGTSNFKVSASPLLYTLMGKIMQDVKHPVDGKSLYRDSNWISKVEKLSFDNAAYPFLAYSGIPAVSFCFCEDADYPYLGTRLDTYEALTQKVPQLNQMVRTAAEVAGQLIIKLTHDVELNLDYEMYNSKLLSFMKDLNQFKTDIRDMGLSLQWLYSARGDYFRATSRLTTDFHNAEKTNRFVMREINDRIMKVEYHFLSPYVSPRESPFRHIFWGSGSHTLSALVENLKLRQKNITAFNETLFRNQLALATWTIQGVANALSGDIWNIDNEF
In words: SPR, kinetic. Put shortly: as §1

Assay [3] addresses T3, rhesus monkey TfR ectodomain fused to a mouse IgG1 Fc fragment (rhesus monkey, UniProt I0FKY7 89-760).
T3 construct: extracellular domain; not shown: mouse IgG1 Fc fragment
In words: SPR, kinetic. Summed up:
as §1

For assay [4], the target named is T2, mouse TfR ectodomain fused to a mouse …. In words: SPR, at equilibrium. Put shortly: as §1
The target of assay [5] is T3, rhesus monkey TfR ectodomain fused to a …. In words: SPR, at equilibrium. Summed up: as §1
In assay [6] the target is T4, human transferrin receptor (hTfR) fused to EGFP, on CHO cells (human, UniProt P02786 1-760).
T4 construct: whole, on cells; also called human TfR; CHO-hTfR-EGFP; not shown: EGFP from pEGFP-C1 vector, fused to the N-terminal (intracellular) end of hTfR
T4 sequence (P02786 whole entry, the tested form may be a part): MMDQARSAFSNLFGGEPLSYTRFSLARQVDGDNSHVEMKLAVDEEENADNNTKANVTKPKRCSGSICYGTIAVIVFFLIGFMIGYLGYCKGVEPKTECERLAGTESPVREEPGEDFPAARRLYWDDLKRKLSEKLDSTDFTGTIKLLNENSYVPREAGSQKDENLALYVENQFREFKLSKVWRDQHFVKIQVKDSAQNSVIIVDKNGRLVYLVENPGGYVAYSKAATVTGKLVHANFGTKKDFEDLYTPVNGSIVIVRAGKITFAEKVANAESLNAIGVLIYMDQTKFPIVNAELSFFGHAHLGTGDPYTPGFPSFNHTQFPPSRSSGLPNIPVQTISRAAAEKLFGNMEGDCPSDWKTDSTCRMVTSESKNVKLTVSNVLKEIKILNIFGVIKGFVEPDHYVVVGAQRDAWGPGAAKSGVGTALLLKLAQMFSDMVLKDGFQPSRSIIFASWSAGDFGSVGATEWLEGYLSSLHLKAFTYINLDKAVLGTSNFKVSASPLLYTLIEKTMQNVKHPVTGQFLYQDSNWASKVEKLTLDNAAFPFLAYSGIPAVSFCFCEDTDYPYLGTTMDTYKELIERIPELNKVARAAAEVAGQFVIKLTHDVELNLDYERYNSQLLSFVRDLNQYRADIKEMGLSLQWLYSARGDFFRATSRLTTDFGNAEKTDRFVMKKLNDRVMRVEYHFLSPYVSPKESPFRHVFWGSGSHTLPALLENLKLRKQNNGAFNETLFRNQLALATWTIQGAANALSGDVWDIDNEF
In words: flow cytometry on CHO-hTfR-EGFP cells, 1 hr at 4 C, anti-6His + Alexa647 anti-mouse; nonlinear fit. As to the method: CHO-hTfR-EGFP cells were incubated 1 hr at 4° C. with various concentrations of the indicated compounds. Detection of VHHs was performed using a primary mouse anti-6His (1/1000) and an Alexa647-conjugated anti-mouse secondary antibody (1/400). Measurements of cell-surface signal associated with VHH were performed using flow cytometry. The results are expressed as the ratio of Alexa647-associated fluorescence intensity of test compounds to that of background fluorescence.

The target of assay [7] is T5, murine TfR expressed by murine neuroblastoma Neuro-2a cells (mouse, UniProt Q62351 1-763).
T5 construct: whole, on cells; also called mTfR (N2a cells)
T5 sequence (Q62351 whole entry): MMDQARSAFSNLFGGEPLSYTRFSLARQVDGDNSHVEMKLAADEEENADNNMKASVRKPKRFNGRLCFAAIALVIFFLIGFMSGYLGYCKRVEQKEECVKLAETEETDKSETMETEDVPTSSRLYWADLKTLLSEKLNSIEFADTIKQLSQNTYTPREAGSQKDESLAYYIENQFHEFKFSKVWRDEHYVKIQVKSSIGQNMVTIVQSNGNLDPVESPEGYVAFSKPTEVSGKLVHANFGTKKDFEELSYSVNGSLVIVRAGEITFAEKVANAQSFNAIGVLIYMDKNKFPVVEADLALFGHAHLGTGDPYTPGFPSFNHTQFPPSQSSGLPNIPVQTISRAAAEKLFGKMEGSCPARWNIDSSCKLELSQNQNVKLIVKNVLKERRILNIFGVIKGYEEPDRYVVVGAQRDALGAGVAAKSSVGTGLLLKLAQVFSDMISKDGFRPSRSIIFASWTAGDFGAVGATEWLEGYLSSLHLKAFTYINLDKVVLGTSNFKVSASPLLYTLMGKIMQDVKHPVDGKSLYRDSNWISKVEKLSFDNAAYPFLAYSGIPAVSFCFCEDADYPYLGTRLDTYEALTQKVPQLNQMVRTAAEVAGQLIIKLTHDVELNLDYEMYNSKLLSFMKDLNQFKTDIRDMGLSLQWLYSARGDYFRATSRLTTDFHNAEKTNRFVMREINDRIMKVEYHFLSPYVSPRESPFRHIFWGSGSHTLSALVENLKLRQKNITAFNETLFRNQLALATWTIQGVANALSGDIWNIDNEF
In words: competition with the fluorescent reference VHH on Neuro-2a cells as in FIG. 25; Ki/app on mTfR, free VHH. As to the method: (§2) The binding of VHH-Oligo and VHH-hFc-Oligo conjugates to mTfR was evaluated using a competition assay on living cells expressing the receptor of interest, namely murine neuroblastoma Neuro-2a cells (N2a). N2a cells were grown in Dulbecco's Modified Eagle Medium (DMEM) GlutaMAX supplemented with 10% v/v FBS in 5% CO₂ at 37° C. Cells were seeded two days before experiments in 96-well plates at a density of 50.000 cells/well. […] Resuspended cells were transferred in a 96-deepwell plate (V-bottom) containing 1% fetal bovine serum (FBS)/0.02% sodium azide in phosphate-buffered saline (PBS) and then centrifuged for 5 min at 2000 rpm at 4° C. After removing the supernatant, 5 mM EDTA in D-PBS and 4% paraformaldehyde (PFA) (v/v 1:1) were added into wells to fix cells for 15 min at room temperature. PFA was removed by centrifugation (5 min, 3000 rpm, 4° C.) and cells were resuspended with 5 mM EDTA in D-PBS. Then the cellular A680-associated fluorescence signal was quantified using an Attune™ NxT flow cytometer (Thermo Fisher Scientific) equipped with Attune™ NxT v3.1.2. Experimental data (experimental triplicates) were fitted with GraphPad Prism® software using a nonlinear fit to determine the apparent Ki inhibition constants.

In assay [8] the target is T5, murine TfR expressed by murine …. Kind of assay: competition with C5-Alexa680 (100 nM) on living Neuro-2a cells, 3 hrs at 37 C, flow cytometry; Ki/app, mean ± SD. The protocol:
as §2

The target in assay [9] is T4, human transferrin receptor (hTfR) fused …. Kind of assay: competition flow cytometry on CHO-hTfR-EGFP cells, 4 C; VHH competitor in dilution series, phage-C5 tracer at EC80, anti-M13-A647. The protocol: (§3) FIGS. 17A-17D: Competition assays between VHHs and phage-VHHs. CHO-hTfR-EGFP cells were incubated 1 hr at 4° C. with VHHs (competitors) at increasing concentrations. Phage-VHHs (tracers) were then added at EC80 and incubated for 1 more hr. Phage-VHHs were detected with an anti-M13-A647 antibody (1/200). Fluorescence levels were assessed using flow cytometry. The ratio of fluorescence intensity for each point was normalized with the corresponding EGFP signal (receptor expression) and gave rise to the arbitrary unit. Data are presented as mean±SEM of independent experiments.
(§4) To evaluate whether selected VHHs compete one with the other for binding to the TfR receptor, competition assays using flow cytometry experiments were performed. All experiments were performed in 96 well plates using 2×10⁵ cells/well, at 4° C. with shaking. CHO cell line expressing the hTfR fused to EGFP was saturated with PBS/BSA 2% solution during 30 min to avoid nonspecific binding, followed by incubation with VHH (competitors) at increasing concentrations for 1 hr. Then, phage-VHHs (tracers) at EC80 were added and incubated 1 hr more. To detect the phage-VHHs, cells were washed twice with PBS/BSA 2% and incubated for 1 hr with an Alexa647-conjugated anti-M13 antibody. […] Fluorescence levels were assessed using an Attune NxT flow cytometer (Thermo Fisher Scientific). […]

Assay [10] has the same target. The description is as above. The protocol:
as §3, §4
This is another data set of the same source.

Read-outs that look alike come from different tables or passages of the source.

1 molecule from US20230414780A1 (VECT HORUS, published 2023) can be followed below.

T1 sequence (P02786 89-760): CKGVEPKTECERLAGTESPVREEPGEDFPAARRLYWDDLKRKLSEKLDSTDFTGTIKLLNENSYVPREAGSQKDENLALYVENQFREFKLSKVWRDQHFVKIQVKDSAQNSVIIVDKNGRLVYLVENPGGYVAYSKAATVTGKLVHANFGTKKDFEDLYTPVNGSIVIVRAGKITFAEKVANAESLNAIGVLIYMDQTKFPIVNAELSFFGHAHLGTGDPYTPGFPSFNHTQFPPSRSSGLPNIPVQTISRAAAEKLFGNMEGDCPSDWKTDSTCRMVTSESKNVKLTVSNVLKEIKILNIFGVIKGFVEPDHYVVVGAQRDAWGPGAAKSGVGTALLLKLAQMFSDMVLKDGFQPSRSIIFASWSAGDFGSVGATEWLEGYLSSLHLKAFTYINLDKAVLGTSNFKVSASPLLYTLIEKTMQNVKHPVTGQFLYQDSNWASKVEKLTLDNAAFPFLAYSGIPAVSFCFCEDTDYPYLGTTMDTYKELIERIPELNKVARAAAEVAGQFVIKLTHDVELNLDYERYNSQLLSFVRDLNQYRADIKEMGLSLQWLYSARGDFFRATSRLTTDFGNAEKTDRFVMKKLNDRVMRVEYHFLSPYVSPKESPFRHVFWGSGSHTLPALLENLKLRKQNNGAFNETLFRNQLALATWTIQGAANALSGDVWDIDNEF

B1: VHH A (C5) (VHH)
VHH: EVQLVESGGGVVQPGGSLKLSCVASGTDFSINFIRWYRQAPGKQREFVAGFTATGNTNYADSMKGRFTISRDNTKNAVYLQIDSLKPEDTAVYYCYMLDKWGQGTQVTVSS
notes: form with the C-terminal myc-His6 tag (x = 1), since the VHHs were detected with anti-6His or anti-cMyc; the same holds for m12 to m126
Consider B1, for which the Kd in assay [1] stood at 0.206 nM; in [2], 88.5 nM; in assay [3], 5.35 nM; in assay [4] it was 88.2 nM; in assay [5], 13.1 nM; in [6], 5.15 nM. The figures for the koff in [1], in assay [2] and in assay [3] were 0.000179 s⁻¹, 0.0447 s⁻¹ and 0.00774 s⁻¹, respectively. Besides, the kon is 665000 M⁻¹ s⁻¹ in assay [1], 915000 M⁻¹ s⁻¹ in [2] and 1.55e+06 M⁻¹ s⁻¹ in assay [3]. Moreover, the Ki in assay [7] and in [8] was 319 nM each time. In addition, the “IC50 (read off the curve)” value in assay [9] and in [10] was roughly 50 nM throughout.
